Laboratory results reported in the supplement of paper PMC10724198.
± gives the standard deviation of the averaged measurements.

Tested on: Saccharomyces cerevisiae
Assay: protein stability index of tFT-peptide fusion (C-terminal peptide) (PSI (0-1 scale)); higher = more stable (slower turnover)
Details: genetic background: wild type; temperature: 30 C
Description: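 Multiplexed protein stability (MPS) profiling in S. cerevisiae. Random 12-aa peptides (tFT-X12 library) are fused to the C-terminus of a sfGFP-mCherry tandem fluorescent timer, after mCherry and a GGGS linker. Cells are FACS-sorted into 8 mCherry/sfGFP bins and deep-sequenced. The protein stability index (PSI) is the read-weighted bin average, scaled from 0 (unstable) to 1 (stable). Only peptides with >10 reads are reported; cells were grown at 30 °C in SC-His with glucose.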
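Also: PSI is a weighted mean of sequencing reads over stability bins, variants kept only with over 10 reads, mCherry proximal and sfGFP distal, peptide attached via GGGS linker.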

Row | Sequence | protein stability index
1 | VFLILKPRDLTE | 0.667 ± 0.01
2 | SRFSRAVSVARV | 0.666 ± 0.023
3 | WGLIASGSIVIV | 0.548 ± 0.05
4 | PVPSPFMHRAAP | 0.702 ± 0.015
5 | LPGKVGNAPFDQ | 0.6913 ± 0.0062
6 | VVVVSGFKGSCL | 0.637 ± 0.065
7 | ALRPLLGRDHKV | 0.68 ± 0.042
8 | WWGLGGREPGGS | 0.711 ± 0.072
9 | PRRPCDPLRAPH | 0.737 ± 0.15
10 | LPRLPVSPLPLP | 0.681 ± 0.057
11 | IIVPCGRWEGGG | 0.69 ± 0.017
12 | FSSTSAPPRSAP | 0.621 ± 0.0078
13 | SVFERDWTGGEV | 0.7184 ± 0.00085
14 | LSGVRFDSVFEH | 0.729 ± 0.016
15 | ECTTTWLVPQHL | 0.655 ± 0.015
16 | ILYNIEKQQSSV | 0.683 ± 0.032
17 | ALAQSGNVVLDR | 0.751 ± 0.1
18 | MGIKSCSSTCVT | 0.857 ± 0.2
19 | PSPLPTALLTNR | 0.644 ± 0.14
20 | ESVGLGDRRVCS | 0.65 ± 0.024
21 | PALRTTRCLPLP | 0.703 ± 0.019
22 | RVGTGFVGYSFS | 0.679 ± 0.13
23 | ATRRYQYSPHKV | 0.651 ± 0.026
24 | GRPYCISASPPH | 0.706 ± 0.0075
25 | FRLPAIRRGHDS | 0.69 ± 0.069

Row | Sequence | protein stability index
26 | VVGAVVLRRGGP | 0.67 ± 0.012
27 | RVRDPQQISILL | 0.65 ± 0.025
28 | GLLCSKTCCAGV | 0.6453 ± 0.0024
29 | FLIRSSQSFELE | 0.715 ± 0.035
30 | SPGPPLPSLTLP | 0.738 ± 0.065
31 | NIMSSFFLTFHR | 0.719 ± 0.017
32 | LGVVSCAVVGFV | 0.625 ± 0.041
33 | LCLRRLSCVGFG | 0.568 ± 0.022
34 | ESTKKQSTAPKN | 0.714 ± 0.043
35 | CFVLPWHVPFGF | 0.715 ± 0.021
36 | SESLLSQPIVLV | 0.647 ± 0.017
37 | VGYGRGGAVGVE | 0.695 ± 0.012
38 | VFGLSPLLQPSD | 0.654 ± 0.0086
39 | DFKHKYREKKKF | 0.615 ± 0.062
40 | EGSGEGEEAGGV | 0.6497 ± 0.0047
41 | VTPPTPPSRASP | 0.667 ± 0.02
42 | CLSDPDVVRVLS | 0.6914 ± 0.0018
43 | AALIHLSFYSPS | 0.67 ± 0.02
44 | GGGAEGGVRGGG | 0.664 ± 0.027
45 | PAALPHTPSAPY | 0.666 ± 0.04
46 | DKSIGIYIVRSH | 0.731 ± 0.012
47 | GKKKRKTKGKNR | 0.663 ± 0.035
48 | RVWFWSGRGGEF | 0.709 ± 0.1
49 | PLWLPPTPMQII | 0.62 ± 0.013
50 | LVFVPTLFPPPG | 0.662 ± 0.053

Row | Sequence | protein stability index
51 | SLGCIPLVDFLR | 0.668 ± 0.0072
52 | CGGAADWRDWGW | 0.775 ± 0.086
53 | VDRDWFLKRDSH | 0.711 ± 0.031
54 | IMTNGADRERYR | 0.736 ± 0.034
55 | ELFGGQRLARNY | 0.637 ± 0.057
56 | GGRVCGGRVEGQ | 0.684 ± 0.007
57 | VYVFGCVVGSGW | 0.639 ± 0.032
58 | RIDHYIFYVNAV | 0.675 ± 0.017
59 | CNRVSLSNVRLF | 0.6675 ± 0.00083
60 | GSVMGRRTGAFV | 0.653 ± 0.041
61 | LSGLFMAARIFI | 0.627 ± 0.06
62 | MINYGLARKKAR | 0.733 ± 0.02
63 | FGFLDRVLLFRV | 0.547 ± 0.013
64 | LLRPYYHILVPL | 0.695 ± 0.0024
65 | PPPPPLSLPPPA | 0.693 ± 0.024
66 | PVLSRLHSEVFL | 0.73 ± 0.081
67 | HDWPQTTRADQS | 0.677 ± 0.036
68 | GSRGGPGGEAAG | 0.652 ± 0.019
69 | PPPTPPSPPRPH | 0.71 ± 0.068
70 | AGVECADRVLWG | 0.774 ± 0.066
71 | LRAWWTPRRGRW | 0.769 ± 0.052
72 | TRYGVRVPGRFR | 0.678 ± 0.018
73 | YGVRCSRINRSG | 0.678 ± 0.059
74 | GDDRGTSKCCLT | 0.702 ± 0.068
75 | LIIGYFSSRVCL | 0.61 ± 0.074

Row | Sequence | protein stability index
76 | GTVDGILLVFVE | 0.593 ± 0.026
77 | CFPPLPPPPPPS | 0.736 ± 0.0077
78 | PTTAPPIPLPSP | 0.72 ± 0.035
79 | FPRPACRSTHIL | 0.671 ± 0.065
80 | PPPPPSPRALLP | 0.657 ± 0.028
81 | PVSCTLTLPPPH | 0.65 ± 0.0036
82 | TAQKHQQPVQLH | 0.715 ± 0.028
83 | VGGRGGGRGVVG | 0.672 ± 0.0073
84 | VGCFLDSLWDWV | 0.679 ± 0.022
85 | SGWSWLGLRSGL | 0.738 ± 0.025
86 | WRNTGSTYYMKV | 0.723 ± 0.015
87 | WGRCVGLAGAAG | 0.677 ± 0.027
88 | LPPLPPPPLLFP | 0.674 ± 0.002
89 | LPPPLPPLLPLP | 0.675 ± 0.014
90 | PPSLPLLPPHPP | 0.562 ± 0.011
91 | QCCPPEQLSNCS | 0.681 ± 0.011
92 | VTHDSACSSRLA | 0.683 ± 0.019
93 | STEFCRIIYRGP | 0.681 ± 0.023
94 | DSIALNKDVFWW | 0.773 ± 0.02
95 | PPPTPPPGTYSL | 0.579 ± 0.011
96 | LVVALGFDDRAC | 0.623 ± 0.027
97 | GMRFDTERKWLL | 0.695 ± 0.084
98 | KQERCCEEREEK | 0.729 ± 0.024
99 | RSWIDNKMKVNV | 0.721 ± 0.0076
100 | PLFSPPFLPFSL | 0.711 ± 0.028

Row | Sequence | protein stability index
101 | WSGNYSNITRYI | 0.66 ± 0.019
102 | CPPRIAFPCGIQ | 0.649 ± 0.094
103 | PFSPPPSTQPSY | 0.754 ± 0.15
104 | VTGSHARFSVPE | 0.658 ± 0.013
105 | RLPPPLPQAPPT | 0.712 ± 0.023
106 | PLPLLSLPRFPL | 0.753 ± 0.1
107 | LDGAHLLLNTIP | 0.687 ± 0.039
108 | FHYALRLLDFNN | 0.716 ± 0.12
109 | NPGLGLSCPSPP | 0.701 ± 0.043
110 | HPPLLPPPTPTS | 0.752 ± 0.062
111 | PPSPLPPAPPSP | 0.668 ± 0.029
112 | NKNRKNQNKGKR | 0.743 ± 0.069
113 | IACDPNNRKDFT | 0.627 ± 0.008
114 | VLSSSPFLHFGC | 0.663 ± 0.072
115 | FLSFFVLGVPGG | 0.707 ± 0.039
116 | GSGPPVGNGLIV | 0.7169 ± 0.0027
117 | KSGVWLWVGGGG | 0.714 ± 0.033
118 | GPKPHREKKSIN | 0.73 ± 0.045
119 | KKITTDNKKNKI | 0.651 ± 0.067
120 | WVRLITCVRCSR | 0.594 ± 0.048
121 | CGDAGSVGCVYV | 0.699 ± 0.055
122 | NPFLHQSMGQLT | 0.724 ± 0.078
123 | PLPPPPPLPFHL | 0.79 ± 0.095
124 | HFGRYLSSVFGV | 0.679 ± 0.05
125 | IYRWSGTVGGER | 0.6971 ± 0.003

Row | Sequence | protein stability index
126 | PPPPPPPPAPPS | 0.68 ± 0.035
127 | GPGTYGASLSGR | 0.65 ± 0.053
128 | GSVRSLARFCVF | 0.499 ± 0.072
129 | LAKRSKCCNRSR | 0.686 ± 0.018
130 | VTGCAVLSGAGE | 0.675 ± 0.051
131 | SSPSFPSPLPPY | 0.701 ± 0.074
132 | GGRWWGRGVFGG | 0.652 ± 0.028
133 | PPPDPPLHHNLP | 0.693 ± 0.036
134 | PPSPPTPPPPLP | 0.66 ± 0.0085
135 | ARGKYKKLKIKE | 0.733 ± 0.018
136 | KNKEISQIYIKN | 0.662 ± 0.027
137 | IVFVLRPRRSRC | 0.65 ± 0.04
138 | HVRLSCTRGMVI | 0.695 ± 0.015
139 | PPPPPPLSPPSP | 0.659 ± 0.012
140 | DGRRRHCYTITA | 0.661 ± 0.031
141 | PLPPPHSPPPSA | 0.677 ± 0.011
142 | PREYGSYHNYHS | 0.592 ± 0.047
143 | VVFFSSPHFVRA | 0.609 ± 0.05
144 | PSPPRPPLPART | 0.763 ± 0.028
145 | HFGSSLPPFCCI | 0.76 ± 0.021
146 | GGRGWGGEMGGR | 0.7156 ± 0.0052
